Measurements reported in paper PMC13071878 (2026).

Target: human angiotensin-converting enzyme 2, extracellular catalytic domain, produced in mammalian cells … (human, UniProt Q9BYF1 19-615)
Experiment: FACS

Sequence of human angiotensin-converting enzyme 2, extracellular catalytic domain, produced in mammalian cells … (Q9BYF1 19-615): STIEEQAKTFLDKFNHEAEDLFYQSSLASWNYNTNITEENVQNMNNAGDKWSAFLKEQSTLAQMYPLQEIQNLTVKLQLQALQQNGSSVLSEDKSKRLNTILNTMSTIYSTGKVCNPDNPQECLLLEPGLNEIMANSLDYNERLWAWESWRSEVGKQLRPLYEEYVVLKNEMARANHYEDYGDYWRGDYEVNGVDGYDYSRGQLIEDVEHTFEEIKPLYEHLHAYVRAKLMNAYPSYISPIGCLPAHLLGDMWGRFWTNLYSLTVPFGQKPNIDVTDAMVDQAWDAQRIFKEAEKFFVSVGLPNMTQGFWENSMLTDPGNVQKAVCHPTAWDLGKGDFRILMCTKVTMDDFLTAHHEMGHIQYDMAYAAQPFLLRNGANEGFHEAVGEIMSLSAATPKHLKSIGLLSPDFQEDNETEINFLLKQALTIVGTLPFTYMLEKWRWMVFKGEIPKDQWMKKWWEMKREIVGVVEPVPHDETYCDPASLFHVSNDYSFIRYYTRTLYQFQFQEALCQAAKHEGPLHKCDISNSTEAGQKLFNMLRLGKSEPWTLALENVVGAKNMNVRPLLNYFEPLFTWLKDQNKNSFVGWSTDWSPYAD

B1: GR1.9 (N8A), yeast-displayed alanine mutant of GR1.4 (peptide)
peptide: ACEPLGYALFLCSG
  Kd: > 1000 nM
